Results taken from article PMC7367873, “Dissecting the sequence determinants for dephosphorylation by the catalytic subunits of phosphatases PP1 and PP2A” (Nature Communications, 2020).
Blank lines part the entries; values can stand above or below the molecule they belong to.

What was measured:
GFP-14-3-3β = GFP-14-3-3β co-IP with LC-MS/MS, untreated GFP-14-3-3β versus GFP control (14-3-3 interactome); type: binding, human; conditions: pairwise comparison untreated vs GFP
[1] = test system: GFP-14-3-3β and its binding proteins; experiment: GFP-14-3-3β co-IP with LC-MS/MS label-free quantification, untreated versus PP1c-treated; set-up: species or system human; conditions: pairwise comparison PP1 vs untreated
[2] = log2 difference, label-free quantification, 3 replicates each

Difference (log2), PP1 vs untreated [1]: -0.1292 log2
B2: RBM14 (protein, UniProt Q96PK6 1-669, looked up)
RNA-binding protein 14: MKIFVGNVDGADTTPEELAALFAPYGTVMSCAVMKQFAFVHMRENAGALRAIEALHGHELRPGRALVVEMSRPRPLNTWKIFVGNVSAACTSQELRSLFERRGRVIECDVVKDYAFVHMEKEADAKAAIAQLNGKEVKGKRINVELSTKGQKKGPGLAVQSGDKTKKPGAGDTAFPGTGGFSATFDYQQAFGNSTGGFDGQARQPTPPFFGRDRSPLRRSPPRASYVAPLTAQPATYRAQPSVSLGAAYRAQPSASLGVGYRTQPMTAQAASYRAQPSVSLGAPYRGQLASPSSQSAAASSLGPYGGAQPSASALSSYGGQAAAASSLNSYGAQGSSLASYGNQPSSYGAQAASSYGVRAAASSYNTQGAASSLGSYGAQAASYGAQSAASSLAYGAQAASYNAQPSASYNAQSAPYAAQQAASYSSQPAAYVAQPATAAAYASQPAAYAAQATTPMAGSYGAQPVVQTQLNSYGAQASMGLSGSYGAQSAAAATGSYGAAAAYGAQPSATLAAPYRTQSSASLAASYAAQQHPQAAASYRGQPGNAYDGAGQPSAAYLSMSQGAVANANSTPPPYERTRLSPPRASYDDPYKKAVAMSKRYGSDRRLAELSDYRRLSESQLSFRRSPTKSSLDYRRLPDAHSDYARYSGSYNDYLRAAQMHSGYQRRM
Difference (log2), untreated vs GFP (GFP-14-3-3β): 0.5797 log2

Difference (log2), PP1 vs untreated [1]: -0.131 log2
B4: MARS (protein, UniProt P56192 1-900, looked up)
Methionine--tRNA ligase, …: MRLFVSDGVPGCLPVLAAAGRARGRAEVLISTVGPEDCVVPFLTRPKVPVLQLDSGNYLFSTSAICRYFFLLSGWEQDDLTNQWLEWEATELQPALSAALYYLVVQGKKGEDVLGSVRRALTHIDHSLSRQNCPFLAGETESLADIVLWGALYPLLQDPAYLPEELSALHSWFQTLSTQEPCQRAAETVLKQQGVLALRPYLQKQPQPSPAEGRAVTNEPEEEELATLSEEEIAMAVTAWEKGLESLPPLRPQQNPVLPVAGERNVLITSALPYVNNVPHLGNIIGCVLSADVFARYSRLRQWNTLYLCGTDEYGTATETKALEEGLTPQEICDKYHIIHADIYRWFNISFDIFGRTTTPQQTKITQDIFQQLLKRGFVLQDTVEQLRCEHCARFLADRFVEGVCPFCGYEEARGDQCDKCGKLINAVELKKPQCKVCRSCPVVQSSQHLFLDLPKLEKRLEEWLGRTLPGSDWTPNAQFITRSWLRDGLKPRCITRDLKWGTPVPLEGFEDKVFYVWFDATIGYLSITANYTDQWERWWKNPEQVDLYQFMAKDNVPFHSLVFPCSALGAEDNYTLVSHLIATEYLNYEDGKFSKSRGVGVFGDMAQDTGIPADIWRFYLLYIRPEGQDSAFSWTDLLLKNNSELLNNLGNFINRAGMFVSKFFGGYVPEMVLTPDDQRLLAHVTLELQHYHQLLEKVRIRDALRSILTISRHGNQYIQVNEPWKRIKGSEADRQRAGTVTGLAVNIAALLSVMLQPYMPTVSATIQAQLQLPPPACSILLTNFLCTLPAGHQIGTVSPLFQKLENDQIESLRQRFGGGQAKTSPKPAVVETVTTAKPQQIQALMDEVTKQGNIVRELKAQKADKNEVAAEVAKLLDLKKQLAVAEGKPPEAPKGKKKK
Difference (log2), untreated vs GFP (GFP-14-3-3β): 0.1917 log2

The remaining lines, values behind:

B1: GEMIN4 (protein, UniProt P57678 1-1058, looked up)
Gem-associated protein 4: MDLGPLNICEEMTILHGGFLLAEQLFHPKALAELTKSDWERVGRPIVEALREISSAAAHSQPFAWKKKALIIIWAKVLQPHPVTPSDTETRWQEDLFFSVGNMIPTINHTILFELLKSLEASGLFIQLLMALPTTICHAELERFLEHVTVDTSAEDVAFFLDVWWEVMKHKGHPQDPLLSQFSAMAHKYLPALDEFPHPPKRLRSDPDACPTMPLLAMLLRGLTQIQSRILGPGRKCCALANLADMLTVFALTEDDPQEVSATVYLDKLATVISVWNSDTQNPYHQQALAEKVKEAERDVSLTSLAKLPSETIFVGCEFLHHLLREWGEELQAVLRSSQGTSYDSYRLCDSLTSFSQNATLYLNRTSLSKEDRQVVSELAECVRDFLRKTSTVLKNRALEDITASIAMAVIQQKMDRHMEVCYIFASEKKWAFSDEWVACLGSNRALFRQPDLVLRLLETVIDVSTADRAIPESQIRQVIHLILECYADLSLPGKNKVLAGILRSWGRKGLSEKLLAYVEGFQEDLNTTFNQLTQSASEQGLAKAVASVARLVIVHPEVTVKKMCSLAVVNLGTHKFLAQILTAFPALRFVEEQGPNSSATFMVSCLKETVWMKFSTPKEEKQFLELLNCLMSPVKPQGIPVAALLEPDEVLKEFVLPFLRLDVEEVDLSLRIFIQTLEANACREEYWLQTCSPFPLLFSLCQLLDRFSKYWQLPKEKRCLSLDRKDLAIHILELLCEIVSANAETFSPDVWIKSLSWLHRKLEQLDWTVGLRLKSFFEGHFKCEVPATLFEICKLSEDEWTSQAHPGYGAGTGLLAWMECCCVSSGISERMLSLLVVDVGNPEEVRLFSKGFLVALVQVMPWCSPQEWQRLHQLTRRLLEKQLLHVPYSLEYIQFVPLLNLKPFAQELQLSVLFLRTFQFLCSHSCRDWLPLEGWNHVVKLLCGSLTRLLDSVRAIQAAGPWVQGPEQDLTQEALFVYTQVFCHALHIMAMLHPEVCEPLYVLALETLTCYETLSKTNPSVSSLLQRAHEQRFLKSIAEGIGPEERRQTLLQKMSSF
Difference (log2), untreated vs GFP (GFP-14-3-3β; [2]): 0.9703
Difference (log2), PP1 vs untreated [1, 2]: 1.751

B3: AP2A1 (protein, UniProt O95782 1-977, looked up)
AP-2 complex subunit alpha-1: MPAVSKGDGMRGLAVFISDIRNCKSKEAEIKRINKELANIRSKFKGDKALDGYSKKKYVCKLLFIFLLGHDIDFGHMEAVNLLSSNKYTEKQIGYLFISVLVNSNSELIRLINNAIKNDLASRNPTFMCLALHCIANVGSREMGEAFAADIPRILVAGDSMDSVKQSAALCLLRLYKASPDLVPMGEWTARVVHLLNDQHMGVVTAAVSLITCLCKKNPDDFKTCVSLAVSRLSRIVSSASTDLQDYTYYFVPAPWLSVKLLRLLQCYPPPEDAAVKGRLVECLETVLNKAQEPPKSKKVQHSNAKNAILFETISLIIHYDSEPNLLVRACNQLGQFLQHRETNLRYLALESMCTLASSEFSHEAVKTHIDTVINALKTERDVSVRQRAADLLYAMCDRSNAKQIVSEMLRYLETADYAIREEIVLKVAILAEKYAVDYSWYVDTILNLIRIAGDYVSEEVWYRVLQIVTNRDDVQGYAAKTVFEALQAPACHENMVKVGGYILGEFGNLIAGDPRSSPPVQFSLLHSKFHLCSVATRALLLSTYIKFINLFPETKATIQGVLRAGSQLRNADVELQQRAVEYLTLSSVASTDVLATVLEEMPPFPERESSILAKLKRKKGPGAGSALDDGRRDPSSNDINGGMEPTPSTVSTPSPSADLLGLRAAPPPAAPPASAGAGNLLVDVFDGPAAQPSLGPTPEEAFLSELEPPAPESPMALLADPAPAADPGPEDIGPPIPEADELLNKFVCKNNGVLFENQLLQIGVKSEFRQNLGRMYLFYGNKTSVQFQNFSPTVVHPGDLQTQLAVQTKRVAAQVDGGAQVQQVLNIECLRDFLTPPLLSVRFRYGGAPQALTLKLPVTINKFFQPTEMAAQDFFQRWKQLSLPQQEAQKIFKANHPMDAEVTKAKLLGFGSALLDNVDPNPENFVGAGIIQTKALQVGCLLRLEPNAQAQMYRLTLRTSKEPVSRHLCELLAQQF
Difference (log2), untreated vs GFP (GFP-14-3-3β): 1.114 log2
Difference (log2), PP1 vs untreated [1]: -0.1358 log2
